As a reminder, the Kd is the free concentration of one partner at which half of the binding sites on the other are occupied at equilibrium, for simple one-to-one binding. The koff is the rate constant with which the complex falls apart. What is called kon is the rate constant with which the complex forms. What is called EC50 is the concentration needed to bring the measured effect to its halfway point. High values mean lower potency in that assay, low ones higher potency in that assay.

Assay [1] concerns the target T1, recombinant human HER2 extracellular domain protein (human, UniProt P04626 23-652).
T1 construct: range 23-652; Range is printed for the immunogen/panning protein; also called ErbB2; recombinant HER2 protein
Briefly: BLI, Protein A capture.

Assay [2] concerns the target T1, recombinant human HER2 extracellular …. Briefly: BLI, Protein A capture. The source holds these as a separate data set. Background: In BLI a coated tip is dipped into the sample, and binding shifts an interference pattern.
Assay [3] has as its target T2, recombinant human EGFR extracellular domain (human, UniProt P00533 25-645).
T2 construct: extracellular domain
Briefly: ELISA, coated EGFR ECD. On the technique in general: An ELISA detects its analyte on a solid surface through an enzyme-linked reagent.

Assay [4] has as its target T3, recombinant human HER3 extracellular domain (human, UniProt P21860 20-643).
T3 construct: extracellular domain
As to the kind of experiment: ELISA, coated HER3 ECD.

The target of assay [5] is T4, recombinant human HER4 extracellular domain (human, UniProt Q15303 26-651).
T4 construct: extracellular domain
T4 sequence (looked up): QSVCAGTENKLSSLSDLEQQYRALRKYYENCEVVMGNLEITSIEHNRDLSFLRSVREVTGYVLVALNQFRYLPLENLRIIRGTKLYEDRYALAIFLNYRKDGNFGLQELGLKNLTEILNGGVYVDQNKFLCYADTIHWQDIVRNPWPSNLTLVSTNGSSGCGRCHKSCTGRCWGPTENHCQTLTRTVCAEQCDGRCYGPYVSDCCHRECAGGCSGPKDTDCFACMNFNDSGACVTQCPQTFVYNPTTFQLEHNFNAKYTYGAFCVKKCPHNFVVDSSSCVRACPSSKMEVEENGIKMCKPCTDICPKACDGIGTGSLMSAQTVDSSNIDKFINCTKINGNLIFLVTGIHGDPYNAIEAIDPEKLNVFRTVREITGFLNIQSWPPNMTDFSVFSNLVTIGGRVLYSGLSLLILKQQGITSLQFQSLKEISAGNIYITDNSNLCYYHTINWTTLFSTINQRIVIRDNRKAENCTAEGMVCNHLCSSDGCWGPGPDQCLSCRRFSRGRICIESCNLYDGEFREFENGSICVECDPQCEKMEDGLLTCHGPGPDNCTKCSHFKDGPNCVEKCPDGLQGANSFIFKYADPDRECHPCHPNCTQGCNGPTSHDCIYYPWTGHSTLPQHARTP
As to the kind of experiment: ELISA, coated HER4 ECD.

For assay [6], the target named is T1, recombinant human HER2 extracellular …. Briefly: BLI, Protein A capture. The source holds these as a separate data set.
Assay [7] shares this target. As to the kind of experiment: BLI (ForteBio).
The target is the same in assay [8]. Briefly: BLI, Protein A capture. The source holds these as a separate data set.
Assay [9] concerns the target T5, human HER2 expressed on tumor cells (human, UniProt P04626 23-1255).
T5 construct: whole, on cells; Cell line is named in each row's assay
As to the kind of experiment: flow cytometry, BT474 cells. On the technique in general: Flow cytometry measures light scatter and fluorescence of single cells or particles in a stream.

In assay [10] the target is T5, human HER2 expressed on tumor cells. Briefly: flow cytometry, RT-112 cells.
For assay [11] the target is unchanged. Briefly: flow cytometry, BT474 cells, 10 µg/mL.

B1: Hu2126-H2K1 (antibody, human IgG1, V domains shown)
VH: QVQLVQSGSELKKPGASVKVSCKASGYTFTDYSMHWVRQAPGQGLEWMGWINTETGEPTYADDFKGRFVFSLDTSVSTAYLQISSLKAEDTAVYFCVRVGRYDYAMDYWGQGTTVTVSS
VL: DIQMTQSPSSLSASVGDRVTITCKASQDVYTAVAWYQQKPGKAPKLLINSASYRYTGVPSRFSGSGSGTDFTLTISSLQPEDFATYYCQQHYSTPPTFGGGTKVEIK
Turning to B1, in assay [1], the dissociation constant (Kd) was found to be 6.89 nM, the koff came to 0.000581 s⁻¹ and the kon was found to be 84300 M⁻¹ s⁻¹. Further, in assay [2], the Kd amounted to 4.71 nM, the koff came to 0.000469 s⁻¹ and the kon came out at 99600 M⁻¹ s⁻¹.

B2: mAb2128 (antibody, V domains shown)
VH: EVQLQQSGPELVKPGASVKIPCKASGYTFTDYNMDWVKQSHGKSLEWIGDINPNNGGTIYNQKFKGKATLTVDKSSSTAYMELRSLTSEDTAVYYCARYGSGYGGFAYWGQGTLVTVSS
VL: DIVLTQSPTTMAASPGEKITITCSASSSISSNYLHWYQQKPGFSPKLLIYRTSNLASGVPARFSGSGSGTSYSLTIGTMEAEDVATYYCQQGSSIPRTFGGGTKLEIK
notes: Chimeric human IgG1/Cκ
B2: the binding result in assay [3] is listed as “no binding”. For the same molecule, in [4], the binding result is listed as “no binding”. Besides, the binding result in [5] is reported as “no binding”. In addition, in [6], the Kd turned out to be 3.44 nM, the koff was 0.000949 s⁻¹ and the kon was 276000 M⁻¹ s⁻¹.

B3: mAb2117 (antibody, V domains shown)
VH: EVKIEESGGGLVKPGGSLKLSCAASGFTYSSYGMSWVRQTPEKRLEWVASISGGGSYTKYPDSVKGRFTISRDNAKNHLYLQMSSLRSEDTALYYCARDYAGFFDVWGAGTTVTVSS
VL: DVVLTQTPLSLPVSLGDQASISCRSSQSLVHSNGNTYLHWYLQKPGQSPKLLIYKVSNRFSGVPDRFSGSGSGTDFTLKISRVEAEDLGVYFCSQSTHVPYTFGGGTKLEIK
notes: also called anti-HER2 chimeric antibody mAb2117
As to B3, in assay [3], the binding result was “no binding”. In assay [4], the binding result is on record as “no binding”. Further, in assay [5], the binding result is reported as “no binding”. Moreover, in assay [6], the Kd turned out to be 4.28 nM, the koff is 0.00166 s⁻¹ and the kon turned out to be 388000 M⁻¹ s⁻¹.

B4: Hu2117HK (Fc fusion)
scFv: EVQLVESGGGLVQPGGSLRLSCAASGFTYSSYGMSWVRQAPGKGLEWVASISGGGSYTKYPDSVKGRFTISRDNSKNTLYLQMNSLRAEDTAVYYCARDYAGFFDVWGQGTLVTVSSGGGGSGGGGSGGGGSDIQMTQSPSSLSASVGDRVTITCRSSQSLVHSNGNTYLHWYQQKPGKAPKLLIYKVSNRFSGVPSRFSGSGSGTDFTLTISSLQPEDFATYFCSQSTHVPYTFGQGTKVEIK
notes: Hu2117-H1 + Hu2117-K1; also called hu2117-H1K1; humanized single-chain antibody Hu2117HK; not shown: human IgG1 Fc
As for B4, in [7], the Kd was 178 nM, the koff turned out to be 0.00296 s⁻¹ and the kon worked out at 16600 M⁻¹ s⁻¹. Further, in assay [8], the Kd stood at 11.4 nM, the koff is 0.00105 s⁻¹ and the kon is 91700 M⁻¹ s⁻¹. Further, the EC50 in assay [9] was 0.107 µg/mL. This molecule also yielded an EC50 in assay [10] of 0.0593 µg/mL.

B5: Hu2117-HK201 (Fc fusion)
scFv: EVQLVESGGGLVQPGGSLRLSCAASGFTYSSYGMSWVRQAPGKGLEWVASISGGGNYAKYVDSVKGRFTISRDNSKNTLYLQMNSLRAEDTAVYYCARDYAGFFDVWGQGTLVTVSSGGGGSGGGGSGGGGSDIQMTQSPSSLSASVGDRVTITCRSSQSLVHSNRNTYLHWYQQKPGKAPKLLIYKVSNRFSGVPSRFSGSGSGTDFTLTISSLQPEDFATYFCSQSTHVPYTFGQGTKVEIK
notes: scFv-hIgG1 Fc; not shown: human IgG1 Fc
For B5, the binding result in assay [11] is “binds”.

B6: Hu2117-HK310 (Fc fusion)
scFv: EVQLVESGGGLVQPGGSLRLSCAASGFTYSSYGMSWVRQAPGKGLEWVASISGGGNYAKYVDNVKGRFTISRDNSKNTLYLQMNSLRAEDTAVYYCARDYVGFFDVWGQGTLVTVSSGGGGSGGGGSGGGGSDIQMTQSPSSLSASVGDRVTITCRSSQSLVHSNRNTYLHWYQQKPGKAPKLLIYKVSNRFSGVPSRFSGSGSGTDFTLTISSLQPEDFATYFCSQSTHVPYTFGQGTKVEIK
notes: as for B5
As for B6, the EC50 in assay [9] turned out to be 0.103 µg/mL; in [10], 0.157 µg/mL.

B7: Hu2117-HK203 (Fc fusion)
scFv: EVQLVESGGGLVQPGGSLRLSCAASGFTYSSYGMSWVRQAPGKGLEWVASISGGGNYAKYVDSVKGRFTISRDNSKNTLYLQMNSLRAEDTAVYYCARDYVGFFDVWGQGTLVTVSSGGGGSGGGGSGGGGSDIQMTQSPSSLSASVGDRVTITCRSSQSLVHSNRNTYLHWYQQKPGKAPKLLIYKVSNRFSGVPSRFSGSGSGTDFTLTISSLQPEDFATYFCSQSTHVPYTFGQGTKVEIK
notes: as for B5
On to B7, for which the EC50 in assay [9] worked out at 0.102 µg/mL; in [10], 0.144 µg/mL.

B8: Hu2117-HK309 (Fc fusion)
scFv: EVQLVESGGGLVQPGGSLRLSCAASGFTYSSYGMSWVRQAPGKGLEWVASISGGGNYAKYVDKVKGRFTISRDNSKNTLYLQMNSLRAEDTAVYYCARDYVGFFDVWGQGTLVTVSSGGGGSGGGGSGGGGSDIQMTQSPSSLSASVGDRVTITCRSSQSLVHSNRNTYLHWYQQKPGKAPKLLIYKVSNRFSGVPSRFSGSGSGTDFTLTISSLQPEDFATYFCSQSTHVPYTFGQGTKVEIK
notes: as for B5
As to B8, the EC50 is 0.103 µg/mL in [9] and 0.0956 µg/mL in assay [10].

B9: Hu2117-HK304 (Fc fusion)
scFv: EVQLVESGGGLVQPGGSLRLSCAASGFTYSSYGMSWVRQAPGKGLEWVASISGGGNYAKYVPSVKGRFTISRDNSKNTLYLQMNSLRAEDTAVYYCARDYVGFFDVWGQGTLVTVSSGGGGSGGGGSGGGGSDIQMTQSPSSLSASVGDRVTITCRSSQSLVHSNRNTYLHWYQQKPGKAPKLLIYKVSNRFSGVPSRFSGSGSGTDFTLTISSLQPEDFATYFCSQSTHVPYTFGQGTKVEIK
notes: as for B5
On to B9, for which the figures for the EC50 in assay [9] and in assay [10] were 0.0922 µg/mL and 0.0622 µg/mL, respectively.

B10: Hu2117-HK303 (Fc fusion)
scFv: EVQLVESGGGLVQPGGSLRLSCAASGFTYSSYGMSWVRQAPGKGLEWVASISGGGNYAKYVESVKGRFTISRDNSKNTLYLQMNSLRAEDTAVYYCARDYVGFFDVWGQGTLVTVSSGGGGSGGGGSGGGGSDIQMTQSPSSLSASVGDRVTITCRSSQSLVHSNRNTYLHWYQQKPGKAPKLLIYKVSNRFSGVPSRFSGSGSGTDFTLTISSLQPEDFATYFCSQSTHVPYTFGQGTKVEIK
notes: as for B5
For B10, the EC50 in assay [9] was found to be 0.101 µg/mL; in assay [10] it was 0.129 µg/mL.

B11: mAb2126 (antibody, human IgG1, V domains shown)
VH: QIQLAQSGPELKKPGETVKISCKASGYTFTDYSMHWVKQAPGKYLKWMGWINTETGEPTYADDFKGRFAFSLETSANTAYLQINNLKNEDTATYFCVRVGRYDYAMDYWGQGTSVTVSS
VL: DIVMTQSHKFMSTSVGDRVSITCKASQDVYTAVAWYQQKPGQSPKLLINSASYRYTGVPDRFTGSGSGTDFTFTISSVQAEDLAVYYCQQHYSTPPTFGGGTKLEIK
notes: also called anti-HER2 chimeric antibody mAb2126
Take B11: the binding result in [3], in assay [4] and in assay [5] was “no binding” in each case. The values for the Kd in assay [6] and in assay [1] were 1.44 nM and 5.2 nM, respectively. The koff in assay [6] amounted to 9.67e-05 s⁻¹; in [1], 0.000502 s⁻¹. Moreover, the kon in assay [6] was 67300 M⁻¹ s⁻¹; in assay [1] it was 96600 M⁻¹ s⁻¹.

The values above are taken from patent EP4725969A1 (Latticon (Suzhou) Biopharmaceuticals Co., Ltd., dated 2024).
